Assay [1] deals with T1, human CTLA-4-Fc (Chimerigen) (human, UniProt P16410 36-161; P01857 99-330 = IgG part, limits assumed).
T1 construct: extracellular domain;domain: Fc portion; Bought protein; also called hCTLA-4-Fc; huCTLA-4-Ig
The experiment in a line: SPR as in Example 9.
Target sequence in this assay (P16410 other isoform, or with tags, fused parts or gaps mutant limits assumed): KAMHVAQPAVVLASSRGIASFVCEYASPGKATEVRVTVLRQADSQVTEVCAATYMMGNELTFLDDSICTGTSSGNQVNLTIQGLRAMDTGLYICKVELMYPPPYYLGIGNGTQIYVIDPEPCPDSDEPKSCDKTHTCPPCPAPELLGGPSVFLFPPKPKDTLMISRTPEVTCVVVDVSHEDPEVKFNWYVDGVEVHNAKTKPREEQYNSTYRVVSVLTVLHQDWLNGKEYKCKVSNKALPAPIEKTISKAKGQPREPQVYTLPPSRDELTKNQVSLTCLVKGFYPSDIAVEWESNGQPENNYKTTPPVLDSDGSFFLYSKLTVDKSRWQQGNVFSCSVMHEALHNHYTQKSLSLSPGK

Assay [2] deals with T1, human CTLA-4-Fc (Chimerigen). As to the kind of experiment: SPR; KD listed beside Tm. On the technique in general: In SPR one partner is held on a chip, and binding of the other changes the refractive index at the surface.
Target sequence in this assay (P16410 other isoform, or with tags, fused parts or gaps mutant limits assumed): as above
The target is the same in assay [3]. The experiment in a line: SPR, Fc fusion captured via anti-human IgG Fc.
Target sequence in this assay (P16410 other isoform, or with tags, fused parts or gaps mutant limits assumed): as above
The target is the same in assay [4]. The experiment in a line: ELISA towards hCTLA-4-Fc.
Target sequence in this assay (P16410 other isoform, or with tags, fused parts or gaps mutant limits assumed): as above
For assay [5] the target is unchanged. As to the kind of experiment: SPR-Affinity towards hCTLA-4-Fc.
Target sequence in this assay (P16410 other isoform, or with tags, fused parts or gaps mutant limits assumed): as above
For assay [6] the target is unchanged. As to the kind of experiment: competition FACS: 2.5 nM human CTLA-4 Fc pre-incubated with the antagonist, then staining of Raji cells; % inhibition of CTLA-4 Fc binding; blocked ligands B7.1 and B7.2.
Assay [7] shares this target. As to the kind of experiment: SPR-Affinity of the PEGylated monomer towards hCTLA-4-Fc.
Target sequence in this assay (P16410 other isoform, or with tags, fused parts or gaps mutant limits assumed): as above
The target is the same in assay [8]. The experiment in a line: Affinity-ELISA of the PEGylated monomer towards hCTLA-4-Fc.
For assay [9], the target named is T2, mCTLA-4-Fc (R&D Systems) (mouse, UniProt P09793 36-162). The experiment in a line: SPR as in Example 9.
T2 sequence (P09793 whole entry): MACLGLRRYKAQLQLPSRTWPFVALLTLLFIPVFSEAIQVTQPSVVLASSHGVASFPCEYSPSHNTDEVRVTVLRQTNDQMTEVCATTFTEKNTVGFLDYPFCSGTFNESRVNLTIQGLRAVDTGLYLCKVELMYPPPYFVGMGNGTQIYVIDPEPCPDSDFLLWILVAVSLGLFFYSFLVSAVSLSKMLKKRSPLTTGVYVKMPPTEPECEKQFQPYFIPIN
Assay [10] has as its target T2, mCTLA-4-Fc (R&D Systems). The experiment in a line: SPR; KD listed beside Tm.

B1: hNGAL mutein F92.1-J08 (designed binder)
chain: QDSTSDLIPAPPLSKVPLQQNFQDNQFHGKWYVVGLAGNRILRDDQHPMNMYATIYELKEDKSYNVTSVIFPHKKCEYTIATFVPGSQPGEFTLGNIKSYGDKTSYLVRVVSTNYNQYAVVFFKLAEDNAEFFAITIYGRTKELASELKENFIRFSKSLGLPENHIVFPVPIDQCIDGSAWSHPQF
notes: also called CTLA-4-J08
Regarding B1, in assay [1], the Kd is 12.8 nM, the off-rate (koff) was found to be 0.000116 s⁻¹ and the kon was 9240 M⁻¹ s⁻¹. In assay [2], the dissociation constant Kd came out at 12.8 nM. In assay [3], this molecule registered a Kd of 12.8 nM, a koff of 0.000116 s⁻¹ and an on-rate (kon) of 9240 M⁻¹ s⁻¹.

B2: S140.4-O10-ABD (fusion with the albumin binding domain of streptococcal protein G) (designed binder)
chain: QDSTSDLIPAPPLSKVPLQQNFQDNQFHGKWYVVGLAGNRILRDDQHPMNMYATIYELKEDKSYNVTSVISSHKKCEYTIATFVPGSQPGEFTLGNIKSYGDKTSYLVRVVSTDYNQYAVVFFKLAEDNAEFFAITIYGRTKELASELKENFIRFSKSLGLPENHIVFPVPIDQCIDGSGGAVDANSLAEAKVLANRELDKYGVSDYYKNLINNAKTVEGVKALIDEILAALPSAWSHPQFEK
notes: Original linker of protein G between mutein and ABD; also called Onc I-004
Take B2: the ELISA affinities in [4] worked out at 3.3 nM. Besides, the Kd in assay [5] was 8.9 nM. In assay [6], the “IC50 (read off the curve)” value was roughly 4 nM.

B3: S140.4-O10-CH4 (fusion with the CH4 domain of the human IgE-Fc portion) (designed binder)
chain: QDSTSDLIPAPPLSKVPLQQNFQDNQFHGKWYVVGLAGNRILRDDQHPMNMYATIYELKEDKSYNVTSVISSHKKCEYTIATFVPGSQPGEFTLGNIKSYGDKTSYLVRVVSTDYNQYAVVFFKLAEDNAEFFAITIYGRTKELASELKENFIRFSKSLGLPENHIVFPVPIDQCIDGSTTKTSGPRAAPEVYAFATPEWPGSRDKRTLACLIQNFMPEDISVQWLHNEVQLPDARHSTTQPRKTKGSGFFVFSRLEVTRAEWEQKDEFICRAVHEAASPSQTVQRAVSVNPESSRSGGCSAWSHPQFEK
modifications: The molecule is a homodimer formed through the CH4 domain (the patent calls it the CH4-dimer). One copy of the chain is given.
notes: Fused for dimerization; CH4 domain between the mutein and the C-terminal Strep tag; also called CH4-dimer
B3: in assay [5], binding was characterised by a dissociation constant (Kd) of 0.8 nM.

B4: S140.4-O10 site-directed PEGylated at Cys 87 with 20k PEG (designed binder)
chain: QDSTSDLIPAPPLSKVPLQQNFQDNQFHGKWYVVGLAGNRILRDDQHPMNMYATIYELKEDKSYNVTSVISSHKKCEYTIATFVPGCQPGEFTLGNIKSYGDKTSYLVRVVSTDYNQYAVVFFKLAEDNAEFFAITIYGRTKELASELKENFIRFSKSLGLPENHIVFPVPIDQCIDGSAWSHPQFEK
modifications: chain 1 pos 87: Cys carrying linear 20 kDa PEG-maleimide, written C
notes: also called O10_PEG(20k); S140.4-O10-PEG (20k)
On to B4, for which, in assay [4], the ELISA affinities turned out to be 3.6 nM. The molecule also had a Kd in assay [5] of 11 nM. In addition, in assay [6], the “IC50 (read off the curve)” value is roughly 4 nM.

B5: S140.4-O10 site-directed PEGylated at Cys 87 with 30k PEG (designed binder)
chain: QDSTSDLIPAPPLSKVPLQQNFQDNQFHGKWYVVGLAGNRILRDDQHPMNMYATIYELKEDKSYNVTSVISSHKKCEYTIATFVPGCQPGEFTLGNIKSYGDKTSYLVRVVSTDYNQYAVVFFKLAEDNAEFFAITIYGRTKELASELKENFIRFSKSLGLPENHIVFPVPIDQCIDGSAWSHPQFEK
modifications: chain 1 pos 87: Cys carrying linear 30 kDa PEG-maleimide, written C
notes: also called O10_PEG(30k); S140.4-O10-PEG(30k)
In assay [4], B5 yielded an ELISA affinities of 3 nM.

B6: S140.4-O10 site-directed PEGylated at Cys 87 with 12k PEG (designed binder)
chain: QDSTSDLIPAPPLSKVPLQQNFQDNQFHGKWYVVGLAGNRILRDDQHPMNMYATIYELKEDKSYNVTSVISSHKKCEYTIATFVPGCQPGEFTLGNIKSYGDKTSYLVRVVSTDYNQYAVVFFKLAEDNAEFFAITIYGRTKELASELKENFIRFSKSLGLPENHIVFPVPIDQCIDGSAWSHPQFEK
modifications: chain 1 pos 87: Cys carrying linear 12k PEG-maleimide on its thiol, written C
notes: also called O10_PEG(12k); O10_S87C PEGylated monomer
In turn, B6 gave an ELISA affinities in [4] of 3.2 nM. The figures for the dissociation constant Kd in assay [5] and in assay [7] were 20 nM and 26 nM, respectively. Moreover, in [8], the “ELISA-Affinity PEGylated Monomer” value was determined as 52 nM.

B7: S140.4-O10_A145C PEGylated with 12k PEG-maleimide (designed binder)
chain: QDSTSDLIPAPPLSKVPLQQNFQDNQFHGKWYVVGLAGNRILRDDQHPMNMYATIYELKEDKSYNVTSVISSHKKCEYTIATFVPGSQPGEFTLGNIKSYGDKTSYLVRVVSTDYNQYAVVFFKLAEDNAEFFAITIYGRTKELCSELKENFIRFSKSLGLPENHIVFPVPIDQCIDG
modifications: 12k PEG-maleimide on Cys 145
notes: also called O10_A145C PEGylated monomer
As for B7, binding in assay [7] was put at a Kd of 50 nM. In [8], the “ELISA-Affinity PEGylated Monomer” value turned out to be 74 nM.

B8: S140.4-O10_V84C PEGylated with 12k PEG-maleimide (designed binder)
chain: QDSTSDLIPAPPLSKVPLQQNFQDNQFHGKWYVVGLAGNRILRDDQHPMNMYATIYELKEDKSYNVTSVISSHKKCEYTIATFCPGSQPGEFTLGNIKSYGDKTSYLVRVVSTDYNQYAVVFFKLAEDNAEFFAITIYGRTKELASELKENFIRFSKSLGLPENHIVFPVPIDQCIDG
modifications: 12k PEG-maleimide on Cys 84
notes: also called O10_V84C PEGylated monomer
Consider B8, for which the Kd in assay [7] was found to be 97 nM. For the same molecule, the “ELISA-Affinity PEGylated Monomer” value in assay [8] amounted to 100 nM.

B9: hNGAL mutein S140.1-F09 (designed binder)
chain: QDSTSDLIPAPPLSKVPLQQNFQDNQFHGKWYVVGLAGNRILRDDQHPMNMYATIYELKEDKSYNVTSVISSHKKCEYTIATFVPGSQPGEFTLGNIKSYGDKTSYLVRVVSTNYNQYAVVFFKLAEDNAEFFAITIYGRTKELASELKENFIRFSKSLGLPENHIVFPVPIDQCIDG
notes: tagged entry not tied to the name; not shown: N-terminal T7 detection tag from vector phNGAL37; C-terminal Strep-tag II from vector phNGAL37
As to B9, the Kd was 7.8 nM in assay [1], 27.9 nM with mCTLA-4-Fc (R&D Systems) [9], 7.8 nM in [2] and 27.9 nM with mCTLA-4-Fc (R&D Systems) [10]. Also, the koff is roughly 9.2e-05 s⁻¹ in [1] and 0.000379 s⁻¹ with mCTLA-4-Fc (R&D Systems) [9]. The association rate constant (kon) in assay [1] was 11800 M⁻¹ s⁻¹; with mCTLA-4-Fc (R&D Systems) [9], 14000 M⁻¹ s⁻¹.

B10: hNGAL mutein S140.4-B16 (designed binder)
chain: QDSTSDLIPAPPLSKVPLQQNFQDNQFHGKWYVVGLAGNRILRDDQHPMNMYATIYELKEDKSYNVTSVIFPHKKCEYTIATFVPGSQPGEFTLSDIKSYGDKTSYLVRVVSTDYNQYAVVFFKLAEDNAEFFAITIYGRTKELASELKENFIRFSKSLGLPENHIVFPVPIDQCIDG
notes: as for B9
On to B10, for which the Kd in [1] worked out at 68 nM; with mCTLA-4-Fc (R&D Systems) [9], 112 nM; in assay [2], 68 nM; with mCTLA-4-Fc (R&D Systems) [10] it was 112 nM. For the same molecule, the koff in [1] stood at 0.000418 s⁻¹; with mCTLA-4-Fc (R&D Systems) [9] it was 0.00056 s⁻¹. In addition, the kon was 6160 M⁻¹ s⁻¹ in assay [1] and 5000 M⁻¹ s⁻¹ with mCTLA-4-Fc (R&D Systems) [9].

B11: hNGAL mutein S140.2-P24 (designed binder)
chain: QDSTSDLIPAPPLSKVPLQQNFQDNQFHGKWYVVGLAGNRILRDDQHPMDMYATIYELKEDKSYNVTSVISSHKKCEYTIATFVPGSQPGEFTLGNIKSYGDKTSYLVRVVSTDYSQYAVVFFKLAEDNAEFFAITIYGRTKELASELKENFIRFSKSLGLPENHIVFPVPIDQCIDG
notes: as for B9
For the molecule B11, the Kd was 20 nM in assay [1], 47 nM in the assay with mCTLA-4-Fc (R&D Systems) [9], 20 nM in assay [2] and 47 nM with mCTLA-4-Fc (R&D Systems) [10]. Also, the values for the dissociation rate constant (koff) (in assay [1]; with mCTLA-4-Fc (R&D Systems) [9]) were 0.00028 s⁻¹ and 0.000705 s⁻¹, respectively. The kon in assay [1] was found to be 14000 M⁻¹ s⁻¹; in the assay with mCTLA-4-Fc (R&D Systems) [9] it was 15000 M⁻¹ s⁻¹.

B12: S140.4-O10_E143C PEGylated with 12k PEG-maleimide (designed binder)
chain: QDSTSDLIPAPPLSKVPLQQNFQDNQFHGKWYVVGLAGNRILRDDQHPMNMYATIYELKEDKSYNVTSVISSHKKCEYTIATFVPGSQPGEFTLGNIKSYGDKTSYLVRVVSTDYNQYAVVFFKLAEDNAEFFAITIYGRTKCLASELKENFIRFSKSLGLPENHIVFPVPIDQCIDG
modifications: 12k PEG-maleimide on Cys 143
notes: also called O10_E143C PEGylated monomer
In assay [7], B12 showed a Kd of 85 nM. In addition, in [8], the “ELISA-Affinity PEGylated Monomer” value came to 103 nM.

B13: hNGAL mutein S140.3-P07 (designed binder)
chain: QDSTSDLIPAPPLSKVPLQQNFQDNQFHGKWYVVGLAGNRILRDDQHPMNMYATIYELKEDKSYNVTSVIFPHKKCEYTIATFVPGSQPGEFTLGNIKSYGDKTSYLVRVVSTDYNQYAVVFFKLAEDDAEFFAITIYGRTKELASELKENFIRFSKSLGLPENHIVFPVPIDQCIDG
notes: as for B9
With B13, the dissociation constant (Kd) in [1] turned out to be 29 nM; with mCTLA-4-Fc (R&D Systems) [9] it was 98 nM; in [2] it was 29 nM; with mCTLA-4-Fc (R&D Systems) [10], 98 nM. Moreover, the koff in assay [1] is 0.000319 s⁻¹; in the assay with mCTLA-4-Fc (R&D Systems) [9] it was 0.000666 s⁻¹. Also, the kon in [1] was 11000 M⁻¹ s⁻¹; with mCTLA-4-Fc (R&D Systems) [9] it was 6800 M⁻¹ s⁻¹.

B14: S140.4-O10_S146C PEGylated with 12k PEG-maleimide (designed binder)
chain: QDSTSDLIPAPPLSKVPLQQNFQDNQFHGKWYVVGLAGNRILRDDQHPMNMYATIYELKEDKSYNVTSVISSHKKCEYTIATFVPGSQPGEFTLGNIKSYGDKTSYLVRVVSTDYNQYAVVFFKLAEDNAEFFAITIYGRTKELACELKENFIRFSKSLGLPENHIVFPVPIDQCIDG
modifications: 12k PEG-maleimide on Cys 146
notes: also called O10_S146C PEGylated monomer
Molecule B14 returned a dissociation constant (Kd) in assay [7] of 50 nM. Also, in assay [8], the “ELISA-Affinity PEGylated Monomer” value was 100 nM.

B15: S140.4-O10_T141C PEGylated with 12k PEG-maleimide (designed binder)
chain: QDSTSDLIPAPPLSKVPLQQNFQDNQFHGKWYVVGLAGNRILRDDQHPMNMYATIYELKEDKSYNVTSVISSHKKCEYTIATFVPGSQPGEFTLGNIKSYGDKTSYLVRVVSTDYNQYAVVFFKLAEDNAEFFAITIYGRCKELASELKENFIRFSKSLGLPENHIVFPVPIDQCIDG
modifications: 12k PEG-maleimide on Cys 141
notes: also called O10_T141C PEGylated monomer
In turn, B15 gave a dissociation constant Kd in assay [7] of 69 nM. Further, in [8], the “ELISA-Affinity PEGylated Monomer” value was found to be 82 nM.

By Kd is commonly meant a measure of binding affinity in units of concentration. The koff is the first-order rate constant of dissociation. Usually kon stands for a measure of how fast the partners come together. A higher kon goes with faster complex formation.

These data come from US20090042785A1 (Pieris, published 2009).
